Here are results for eight molecules from publication PMC5983490, “White-rot basidiomycetes Junghuhnia nitida and Steccherinum bourdotii: Oxidative potential and laccase properties in comparison with Trametes hirsuta and Coriolopsis caperata” (PLoS ONE, 2018).

Where two headings read alike, the source gives them in different places.

Data set [1] has as its system T1, SbL (Steccherinum bourdotii laccase).
T1 construct: peptides most similar to S. murashkinskyi laccase 2 / A. faginea laccase A
As to the kind of experiment: spectrophotometric oxidation, […] nm, non-linear fit. Type of data set: biochemical. As to conditions: 0.1 M McIlvaine buffer pH 4.5, 25 °C; read-out: Steccherinaceae group / SbL.

Data set [2] has as its system T2, JnL (Junghuhnia nitida laccase).
T2 construct: peptides most similar to S. murashkinskyi laccase 2 / A. faginea laccase A
The data set can be described thus: spectrophotometric oxidation, […] nm, non-linear fit. Type of data set: biochemical. As to conditions: 0.1 M McIlvaine buffer pH 4.5, 25 °C; read-out: Steccherinaceae group / JnL.

Data set [3] shares this test system. As to the kind of experiment: spectrophotometric oxidation, […] nm, non-linear fit. Type of data set: biochemical. The note with it: 0.1 M McIlvaine buffer pH 4.5, 25 °C; read-out: Steccherinaceae group / JnL. This is another data set of the same source.
Data set [4] relates to T1, SbL (Steccherinum bourdotii laccase). The data set can be described thus: spectrophotometric oxidation, […] nm, non-linear fit. Type of data set: biochemical. As to conditions: 0.1 M McIlvaine buffer pH 4.5, 25 °C; read-out: Steccherinaceae group / SbL. The source holds these as a separate data set.
Data set [5] has the same test system. As to the kind of experiment: spectrophotometric oxidation, […] nm, non-linear fit. Type of data set: biochemical. As to conditions: 0.1 M McIlvaine buffer pH 4.5, 25 °C; read-out: Steccherinaceae group / SbL. This is another data set of the same source.
Data set [6] concerns JnL (Junghuhnia nitida laccase). The note with it: read-out: Steccherinaceae group / JnL; 0.1 M McIlvaine buffer pH 4.5, 25 °C.
Data set [7] shares this test system. As to conditions: read-out: Steccherinaceae group / JnL; 0.1 M McIlvaine buffer pH 4.5, 25 °C. This is another data set of the same source.
For data set [8], the system named is SbL (Steccherinum bourdotii laccase). The note with it: read-out: Steccherinaceae group / JnL; 0.1 M McIlvaine buffer pH 4.5, 25 °C.
In data set [9] the test system is T2, JnL (Junghuhnia nitida laccase). The data set can be described thus: oxygen consumption, Clark-type electrode, non-linear fit. Type of data set: biochemical. The note with it: 0.1 M citrate-phosphate buffer pH 4.5, 25 °C; read-out: Steccherinaceae group / JnL. From the text: oxygen consumption, Clark-type electrode, non-linear fit on JnL (Junghuhnia nitida laccase)

The subject of data set [10] is T1, SbL (Steccherinum bourdotii laccase). The data set is described as above. Type of data set: biochemical. As to conditions: 0.1 M citrate-phosphate buffer pH 4.5, 25 °C; read-out: Steccherinaceae group / SbL. From the text:
oxygen consumption, Clark-type electrode, non-linear fit on SbL (Steccherinum bourdotii laccase)

In data set [11] the test system is T2, JnL (Junghuhnia nitida laccase). As to the kind of experiment: spectrophotometric oxidation, […] nm, non-linear fit. Type of data set: biochemical. The note with it: 0.1 M McIlvaine buffer pH 4.5, 25 °C; read-out: Steccherinaceae group / JnL. The source holds these as a separate data set.
The test system of data set [12] is T1, SbL (Steccherinum bourdotii laccase). As to the kind of experiment: spectrophotometric oxidation, […] nm, non-linear fit. Type of data set: biochemical. As to conditions: 0.1 M McIlvaine buffer pH 4.5, 25 °C; read-out: Steccherinaceae group / SbL. The source holds these as a separate data set.
Substrate in data set [13]: COc1cc(C=NN=Cc2cc(OC)c(O)c(OC)c2)cc(OC)c1O
As to the kind of experiment: purified protein. Type of data set: biochemical, Cerrena caperata. As to conditions: 0.1 M McIlvaine buffer pH 4.5, 25 °C.

Substrate in data set [14]: COc1cc(/C=C/C(=O)O)cc(OC)c1O
As to the kind of experiment: purified protein. Type of data set: biochemical, Cerrena caperata. The note with it: 0.1 M McIlvaine buffer pH 4.5, 25 °C.

Substrate in data set [15]: O=C(O)c1cc(O)c(O)c(O)c1
As to the kind of experiment: purified protein, by the assay type. As to conditions: 25.0 °C. Further details: Laccase substrate oxidation kinetics, spectrophotometric initial rates, 25 °C, McIlvaine buffer pH 4.5. How it is done:
(§1) Kinetic constants were measured spectrophotometrically using a PerkinElmer Lambda 35 spectrophotometer (USA) at 25°C. […] 10 μl of enzyme solution at a concentration of 1 mg·ml^-1 (50 mM potassium phosphate buffer pH 6.5) was added to 2 ml substrate solution in 0.1 M McIlvaine buffer, pH 4.5. The reaction rate was measured by monitoring of the absorbance change during 3 min. […] It is interesting that syringyl-type substrates like 2,6-DMP, sinapic acid and syringaldazine were better in terms of Km and kcat/Km values for JnL and SbL compared to CcL and ThL.

Substrate in data set [16]: COc1ccccc1O
As to the kind of experiment: purified protein, by the assay type. Further details: Laccase substrate oxidation kinetics, spectrophotometric initial rates, 25 °C, McIlvaine buffer pH 4.5. The note with it: 25.0 °C. How it is done:
as §1

Substrate in data set [17]: COc1cccc(OC)c1O
As to the kind of experiment: purified protein, by the assay type. Details: Laccase substrate oxidation kinetics, spectrophotometric initial rates, 25 °C, McIlvaine buffer pH 4.5. As to conditions: 25.0 °C. On the procedure:
as §1

Substrate in data set [18]: Oc1ccccc1O
The data set can be described thus: purified protein, by the assay type. Further details: Laccase substrate oxidation kinetics, spectrophotometric initial rates, 25 °C, McIlvaine buffer pH 4.5. The note with it: 25.0 °C. How it is done:
as §1

Substrate in data set [19]: COc1cc(/C=C/C(=O)O)ccc1O
The data set can be described thus: purified protein. The note with it: 0.1 M McIlvaine buffer pH 4.5, 25 °C.

Substrate in data set [20]: COc1cc(/C=C/C(=O)O)ccc1O
As to the kind of experiment: purified protein, by the assay type. Details: Laccase substrate oxidation kinetics, spectrophotometric initial rates, 25 °C, McIlvaine buffer pH 4.5. The note with it: 25.0 °C. On the procedure:
as §1

Substrate in data set [21]: COc1cc(C=NN=Cc2cc(OC)c(O)c(OC)c2)cc(OC)c1O
The data set can be described thus: purified protein, by the assay type. Details: Laccase substrate oxidation kinetics, spectrophotometric initial rates, 25 °C, McIlvaine buffer pH 4.5. As to conditions: 25.0 °C. On the procedure:
as §1

Substrate in data set [22]: COc1cccc(OC)c1O
As to the kind of experiment: purified protein. Type of data set: biochemical, Trametes hirsuta. As to conditions: 0.1 M McIlvaine buffer pH 4.5, 25 °C.

Substrate in data set [23]: COc1cc(/C=C/C(=O)O)cc(OC)c1O
The data set can be described thus: purified protein. Type of data set: biochemical, Trametes hirsuta. The note with it: 0.1 M McIlvaine buffer pH 4.5, 25 °C.

Substrate in data set [24]: COc1cc([C@@H]2OC[C@@H]3[C@H]2CO[C@H]3c2ccc(O)c(OC)c2)ccc1O
As to the kind of experiment: oxygen consumption, Clark-type electrode, non-linear fit. The note with it: 0.1 M citrate-phosphate buffer pH 4.5, 25 °C. Type of data set: biochemical, Trametes hirsuta. The text has this:
oxygen consumption, Clark-type electrode, non-linear fit on ThL (Trametes hirsuta laccase)

For `COc1cccc(OC)c1O` [2,6-DMP], the Km came out at 8 ± 1 µM in [1] and 7 ± 1 µM in data set [2].

For the molecule `COc1cc(C=NN=Cc2cc(OC)c(O)c(OC)c2)cc(OC)c1O` [Syringaldazine], the Km in [3] is 2000 ± 400 nM; in [4] it was 1000 ± 300 nM.

Turning to `COc1cc(/C=C/C(=O)O)ccc1O` [Ferulic acid], the Km in [5] came to 19 ± 2 µM; in data set [6], 19 ± 1 µM.

As to `CCn1c(=NN=c2sc3cc(S(=O)(=O)O)ccc3n2CC)sc2cc(S(=O)(=O)O)ccc21` [ABTS], the Km in data set [7] and in [8] was 17 ± 2 µM each time.

Regarding `COc1cc([C@@H]2OC[C@@H]3[C@H]2CO[C@H]3c2ccc(O)c(OC)c2)ccc1O` [Pinoresinol], the results for the Km in [9] and in data set [10] were 89 ± 12 µM and 149 ± 22 µM, respectively.

Regarding `COc1cc(/C=C/C(=O)O)cc(OC)c1O` [Sinapic acid], the Km was 9 ± 1 µM in data set [11] and 8 ± 1 µM in [12].

B1: CcL (Coriolopsis caperata laccase) (Cerrena caperata) (protein)
chain: GIGPVTDLTISDGPVSPDGFTRQAILVNNQFPSPLITGNKGDRFQLNVIDNMNNHTMLKSTSIHWHGFFQHGTNWADGPAFVNQCPISPGHSFLYDFQVPDQAGTFWYHSHLSTQYCDGLRGPIVVYDPQDPHKDLYDVDDDSTVITLADWYHLAAKVGPAVPTADATLINGLGRSISTLNADLAVISVTKGKRYRFRLVSLSCDPNHTFSIDGHTMTVIEADSVNLKPQVVDSIQIFAAQRYSFVLNADQDIGNYWIRAMPNSGTRNFDGGVNSAILRYDGADPVEPTTTQTPSSQPLVESALTTLEGTAAPGSPTAGGVDLAINMAFGFAGGRFTINGASFTPPTVPVLLQILSGAQNAQDLLPTGSVYSLPANADIEISLPATAAAPGFPHPFHLHGHTFAVVRSAGSSTYNYANPVYRDVVSTGSPGDNVTIRFRTDNPGPWFLHCHIDFHLEAGFAVVMAEDIPDVAAVNPVPQAWSDLCPTYNALDPNDQ
On to B1, for which the Km worked out at 5 ± 0.3 µM in “purified protein [13]”; 17 ± 2 µM in the data set “purified protein [14]”; 129 µM in data set [15]; 696 µM in [16]; 65 µM in data set [17]; 815 µM in [18]. Besides, the Km in “purified protein [19]” worked out at 20 ± 2 µM. The kcat – broadly, the number of substrate molecules converted per active site and unit of time at saturation – in “purified protein [13]” amounted to 122 ± 2 s⁻¹; in the data set “purified protein [14]”, 324 ± 31 s⁻¹; in data set [15], 55 ± 2 s⁻¹; in [16], 165 ± 12 s⁻¹; in data set [17] it was 121 ± 8 s⁻¹; in [18] it was 269 ± 6 s⁻¹. Besides, in “purified protein [19]”, the kcat worked out at 234 s⁻¹. For the same molecule, the kcat/Km (in general, the second-order rate constant that governs catalysis at low substrate concentration) came out at 2.44e+07 M⁻¹ s⁻¹ in the data set “purified protein [13]”; 1.91e+07 M⁻¹ s⁻¹ in the data set “purified protein [14]”; 434000 M⁻¹ s⁻¹ in data set [15]; 237000 M⁻¹ s⁻¹ in [16]; 1.86e+06 M⁻¹ s⁻¹ in data set [17]; 330000 M⁻¹ s⁻¹ in data set [18]. Besides, the catalytic efficiency (kcat/Km) in the data set “purified protein [19]” amounted to 1.17e+07 M⁻¹ s⁻¹.

B2: ThL (Trametes hirsuta laccase) (Trametes hirsuta) (protein)
chain: AVGPVADLTITDAAVSPDGFSRQAVVVNGVTPGPLVAGNIGDRFQLNVIDNLTNHTMLKSTSIHWHGFFQHGTNWADGPAFINQCPISPGHSFLYDFQVPDQAGTFWYHSHLSTQYCDGLRGPFVVYDPNDPHASRYDVDNDDTVITLADWYHTAAKLGPRFPGGADATLINGKGRAPSDSPAELSVIKVTKGKRYRFRLVSLSCNPNHTFSIDGHNLTIIEVDSVNSQPLEVDSIQIFAAQRYSFVLDANQAVDNYWIRANPNFGNVGFDGGINSAILRYDGAPAVEPTTNQTTSVKPLNEVDLHPLVSTPVPGSPSSGGVDKAINMAFNFNGSNFFINGASFVPPTVPVLLQILSGAQTAQDLLPSGSVYVLPSNASIEISFPATAAAPGAPHPFHLHGHTFAVVRSAGSTVYNYDNPIFRDVVSTGTPAAGDNVTIRFDTNNPGPWFLHCHIDFHLEGGFAVVMAEDTPDVKAVNPVPQAWSDLCPTYDALDPNDQ
Turning to B2, the Km was 223 µM in data set [15]; 28 µM in data set [20]; 34 µM in data set [21]; 173 µM in data set [16]; 183 µM in data set [18]; 24 ± 2 µM in the data set “purified protein [22]”. Moreover, the figures for the Km (in the data set “purified protein [23]”; in data set [24]) were 13 ± 1 µM and 61 ± 8 µM, respectively. In addition, the kcat is 58 ± 3 s⁻¹ in data set [15]; 270 ± 25 s⁻¹ in [20]; 131 ± 10 s⁻¹ in [21]; 162 ± 10 s⁻¹ in data set [16]; 302 ± 27 s⁻¹ in data set [18]; 128 ± 11 s⁻¹ in “purified protein [22]”. Further, the figures for the kcat (in the data set “purified protein [23]”; in data set [24]) were 317 ± 23 s⁻¹ and 73 ± 3 s⁻¹, respectively. The kcat/Km stood at 260000 M⁻¹ s⁻¹ in [15]; 9.64e+06 M⁻¹ s⁻¹ in data set [20]; 3.85e+06 M⁻¹ s⁻¹ in data set [21]; 976000 M⁻¹ s⁻¹ in [16]; 1.65e+06 M⁻¹ s⁻¹ in data set [18]; 5.33e+06 M⁻¹ s⁻¹ in the data set “purified protein [22]”. Also, the catalytic efficiency (kcat/Km) came to 2.44e+07 M⁻¹ s⁻¹ in “purified protein [23]” and 1.2e+06 M⁻¹ s⁻¹ in [24].
